Literature values in US4150121A, “Kinin containing injection composition” (THERA Gesellschaft fur Patentverwertung mbH, priority 1976, dated 1979).
Where a SMILES comes first, the peptide text is derived from it.

Conditions: intracutaneous injection

Compound: kallidin: decapeptide kinin: Brady kinin extended at the amino end by an additional lysine residue
- amount causing vehement pain reactions: about 0.1 microgram in 1 milliliter of solution

Compound: NC(N)=NCCC[C@H](NC(=O)[C@H](Cc1ccccc1)NC(=O)[C@@H]1CCCN1C(=O)[C@H](CO)NC(=O)[C@H](Cc1ccccc1)NC(=O)CNC(=O)[C@@H]1CCCN1C(=O)[C@@H]1CCCN1C(=O)[C@@H](N)CCCN=C(N)N)C(=O)O [Bradykinin, (NH2) arginine - proline - proline -glycine - phenylalanine - serine - proline - phenylalanine - arginine (COOH)] (H-RPPGFSPFR-OH)
- amount causing vehement pain reactions: about 0.1 microgram in 1 milliliter of solution
